For the experiment, the target named is GCSF-Fc (human granulocyte colony-stimulating factor fused with the IgG1 Fc domain at the C-terminus) (UniProt P09919). In words: non-reducing SDS-PAGE; purified GCSF-Fc run under reducing and non-reducing conditions, 10% SDS-PAGE.

Consider “GCSF-Fc (human granulocyte colony-stimulating factor fused with the IgG1 Fc domain at the C-terminus) (from UniProt P09919-2 31-204) (Fc fusion)”, for which the stoichiometry N (as a rule, the number of molecules, sites or subunits per partner or assembly) was determined as 2.

Values taken from article PMC5526978.
